Assay results published in the supplement of paper PMC10567573.

B1: MYOZ1 (parent)
chain: FSDSSMDHFQKFLPTVGGQLGTAG

Variants of: B1
Experiment: protein stability index of a GFP-peptide fusion (GPS, HEK-293T) (PSI 1-6); higher = more stable
Conditions: c terminus: a fixed tail appended
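Also: lentivirally expressed fusions sorted by FACS into six bins by GFP to DsRed ratio, PSI derived from sequencing read proportions per bin multiplied by bin number.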

| Variant | protein stability index |
| --- | --- |
| FSDSSMDHFQKFLPTVGGQLGKAG [T22K] | 3.06 |
| FSDSSMDHFQKFLPTVGGQLGSAG [T22S] | 2.19 |
| FSDSSMDHFQKFLPTVGGQLGPAG [T22P] | 2.15 |
| FSDSSMDHFQKFLPTVGGQLGRAG [T22R] | 2.16 |
| FSDSSMDHFQKFLPTVGGQLGGAG [T22G] | 2.09 |
| FSDSSMDHFQKFLPTVGGQLGIAG [T22I] | 2.57 |
| FSDSSMDHFQKFLPTVGGQLGQAG [T22Q] | 2.36 |
| FSDSSMDHFQKFLPTVGGQLGDAG [T22D] | 2.86 |
| FSDSSMDHFQKFLPTVGGQLGEAG [T22E] | 3.05 |
| FSDSSMDHFQKFLPTVGGQLGFAG [T22F] | 1.82 |
| FSDSSMDHFQKFLPTVGGQLGMAG [T22M] | 2.14 |
| FSDSSMDHFQKFLPTVGGQLGCAG [T22C] | 1.81 |
| FSDSSMDHFQKFLPTVGGQLGAAG [T22A] | 2.29 |
| FSDSSMDHFQKFLPTVGGQLGNAG [T22N] | 2.54 |
| FSDSSMDHFQKFLPTVGGQLGLAG [T22L] | 3.17 |
| FSDSSMDHFQKFLPTVGGQLGYAG [T22Y] | 2.05 |
| FSDSSMDHFQKFLPTVGGQLGWAG [T22W] | 1.43 |
| FSDSSMDHFQKFLPTVGGQLGHAG [T22H] | 1.86 |
| FSDSSMDHFQKFLPTVGGQLDTAG [G21D] | 2.81 |
| FSDSSMDHFQKFLPTVGGQLHTAG [G21H] | 2.14 |
| FSDSSMDHFQKFLPTVGGQLWTAG [G21W] | 1.76 |
| FSDSSMDHFQKFLPTVGGQLMTAG [G21M] | 2.28 |
| FSDSSMDHFQKFLPTVGGQLATAG [G21A] | 1.87 |
| FSDSSMDHFQKFLPTVGGQLTTAG [G21T] | 2.13 |

| Variant | protein stability index |
| --- | --- |
| FSDSSMDHFQKFLPTVGGQLNTAG [G21N] | 2.98 |
| FSDSSMDHFQKFLPTVGGQLLTAG [G21L] | 2.71 |
| FSDSSMDHFQKFLPTVGGQLYTAG [G21Y] | 1.59 |
| FSDSSMDHFQKFLPTVGGQLFTAG [G21F] | 1.62 |
| FSDSSMDHFQKFLPTVGGQLPTAG [G21P] | 2.54 |
| FSDSSMDHFQKFLPTVGGQLETAG [G21E] | 2.35 |
| FSDSSMDHFQKFLPTVGGQLRTAG [G21R] | 2.25 |
| FSDSSMDHFQKFLPTVGGQLVTAG [G21V] | 1.75 |
| FSDSSMDHFQKFLPTVGGQLSTAG [G21S] | 1.69 |
| FSDSSMDHFQKFLPTVGGQLCTAG [G21C] | 1.61 |
| FSDSSMDHFQKFLPTVGGQLITAG [G21I] | 1.76 |
| FSDSSMDHFQKFLPTVGGQLQTAG [G21Q] | 2.04 |
| FSDSSMDHFQKFLPTVGGQLKTAG [G21K] | 2.32 |
| FSDSSMDHFQKFLPTHGGQLGTAG [V16H] | 2.75 |
| FSDSSMDHFQKFLPTRGGQLGTAG [V16R] | 2.46 |
| FSDSSMDHFQKFLPTKGGQLGTAG [V16K] | 2.64 |
| FSDSSMDHFQKFLPTNGGQLGTAG [V16N] | 2.26 |
| FSDSSMDHFQKFLPTAGGQLGTAG [V16A] | 3.19 |
| FSDSSMDHFQKFLPTLGGQLGTAG [V16L] | 2.28 |
| FSDSSMDHFQKFLPTCGGQLGTAG [V16C] | 2.38 |
| FSDSSMDHFQKFLPTQGGQLGTAG [V16Q] | 3.19 |
| FSDSSMDHFQKFLPTIGGQLGTAG [V16I] | 2.13 |
| FSDSSMDHFQKFLPTYGGQLGTAG [V16Y] | 1.92 |
| FSDSSMDHFQKFLPTMGGQLGTAG [V16M] | 2.46 |

| Variant | protein stability index |
| --- | --- |
| FSDSSMDHFQKFLPTSGGQLGTAG [V16S] | 2.94 |
| FSDSSMDHFQKFLPTDGGQLGTAG [V16D] | 2.85 |
| FSDSSMDHFQKFLPTPGGQLGTAG [V16P] | 2.56 |
| FSDSSMDHFQKFLPTFGGQLGTAG [V16F] | 2.75 |
| FSDSSMDHFQKFLPTEGGQLGTAG [V16E] | 4.23 |
| FSDSSMDHFQKFLPTTGGQLGTAG [V16T] | 3.09 |
| FSDSSMDHFQKFLPTGGGQLGTAG [V16G] | 2.98 |
| FSDSSMDHFQKFLPTWGGQLGTAG [V16W] | 2.44 |
| FSDSSMDHFQKFLRTVGGQLGTAG [P14R] | 1.44 |
| FSDSSMDHFQKFLQTVGGQLGTAG [P14Q] | 2.38 |
| FSDSSMDHFQKFLLTVGGQLGTAG [P14L] | 4.1 |
| FSDSSMDHFQKFLMTVGGQLGTAG [P14M] | 2.68 |
| FSDSSMDHFQKFLTTVGGQLGTAG [P14T] | 2.25 |
| FSDSSMDHFQKFLVTVGGQLGTAG [P14V] | 3.62 |
| FSDSSMDHFQKFLGTVGGQLGTAG [P14G] | 1.58 |
| FSDSSMDHFQKFLNTVGGQLGTAG [P14N] | 1.47 |
| FSDSSMDHFQKFLPTVGIQLGTAG [G18I] | 1.52 |
| FSDSSMDHFQKFLPTVGPQLGTAG [G18P] | 2.43 |
| FSDSSMDHFQKFLPTVGLQLGTAG [G18L] | 2.3 |
| FSDSSMDHFQKFLPTVGHQLGTAG [G18H] | 2.04 |
| FSDSSMDHFQKFLPTVGVQLGTAG [G18V] | 1.94 |
| FSDSSMDHFQKFLPTVGCQLGTAG [G18C] | 2.04 |
| FSDSSMDHFQKFLPTVGWQLGTAG [G18W] | 1.85 |
| FSDSSMDHFQKFLPTVGNQLGTAG [G18N] | 2.67 |

| Variant | protein stability index |
| --- | --- |
| FSDSSMDHFQKFLPTVGMQLGTAG [G18M] | 2.49 |
| FSDSSMDHFQKFLPTVGAQLGTAG [G18A] | 1.92 |
| FSDSSMDHFQKFLPTVGDQLGTAG [G18D] | 3.05 |
| FSDSSMDHFQKFLPTVGRQLGTAG [G18R] | 2.79 |
| FSDSSMDHFQKFLPTVGSQLGTAG [G18S] | 2.48 |
| FSDSSMDHFQKFLPTVGEQLGTAG [G18E] | 3.48 |
| FSDSSMDHFQKFLPTVGQQLGTAG [G18Q] | 2.63 |
| FSDSSMDHFQKFLPTVGTQLGTAG [G18T] | 2.55 |
| FSDSSMDHFQKFLPTVGFQLGTAG [G18F] | 1.51 |
| FSDSSMDHFQKFLPTVGYQLGTAG [G18Y] | 1.64 |
| FSDSSMDHFQKFLPTVGKQLGTAG [G18K] | 2 |
| FSDSSMDHFQKFLPTVGGQLGTAA [G24A] | 1.71 |
| FSDSSMDHFQKFLPTVGGQLGTAC [G24C] | 1.95 |
| FSDSSMDHFQKFLPTVGGQLGTAH [G24H] | 2.33 |
| FSDSSMDHFQKFLPTVGGQLGTAM [G24M] | 1.92 |
| FSDSSMDHFQKFLPTVGGQLGTAD [G24D] | 3.09 |
| FSDSSMDHFQKFLPTVGGQLGTAE [G24E] | 2.54 |
| FSDSSMDHFQKFLPTVGGQLGTAP [G24P] | 2.25 |
| FSDSSMDHFQKFLPTVGGQLGTAI [G24I] | 1.54 |
| FSDSSMDHFQKFLPTVGGQLGTAN [G24N] | 2.03 |
| FSDSSMDHFQKFLPTVGGQLGTAL [G24L] | 2.36 |
| FSDSSMDHFQKFLPTVGGQLGTAK [G24K] | 2.16 |
